We go through two substances from patent US20070249530A1.

For assay [1], the target named is Murine APRIL (K104-L241) thioredoxin fusion protein (murine) (UniProt Q9D777). Kind of assay: competitive displacement ELISA on immobilized APRIL; unlabeled baculovirus BCMA varied, tracer biotinylated BCMA-Z. Background: An ELISA detects its analyte on a solid surface through an enzyme-linked reagent.
Assay [2] shares this target. Kind of assay: competitive displacement ELISA on immobilized APRIL; unlabeled baculovirus BCMA varied, tracer biotinylated baculovirus BCMA.
For assay [3] the target is unchanged. Kind of assay: SPR (BIAcore 3000), APRIL immobilized, 1:1 model. In general terms: SPR reads the build-up and loss of mass on a sensor chip optically.
For assay [4] the target is unchanged. Kind of assay: competition ELISA; immobilized APRIL, tracer biotinylated BCMA-Z.
The target is the same in assay [5]. Kind of assay: competitive displacement ELISA; immobilized APRIL, tracer biotinylated BCMA-Z.
Assay [6] shares this target. Kind of assay: competitive displacement ELISA on immobilized APRIL; unbiotinylated BCMA-Fc varied, tracer biotinylated BCMA-Z.

Chain of BCMA-Fc (Q02223 5-51): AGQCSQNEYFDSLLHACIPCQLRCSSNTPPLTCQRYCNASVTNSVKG
Chain of BCMA ECD purified from baculovirus expression (Q02223 4-53): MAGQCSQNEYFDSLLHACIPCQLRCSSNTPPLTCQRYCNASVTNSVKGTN

Regarding “BCMA ECD purified from baculovirus expression (from UniProt Q02223 4-53) (receptor)”, the IC50 (read off the curve) turned out to be 10 nM in assay [1] and 20 nM in assay [2].

For orientation: Kd means the concentration at which binding is half-saturated. Lower therefore signals tighter binding. A word on the kon: it is the rate constant with which the complex forms. High values mean fast association, low ones slow association. In general, IC50 refers to the concentration that inhibits the measured activity by half. The low end stands for greater potency in that assay, the high end for weaker potency in that assay. As for “BCMA-Fc (from UniProt Q02223 5-51) (Fc fusion)”, the Kd in assay [3] was 0.2 nM. The substance further returned a kon in assay [3] of 3.12e+06 M⁻¹ s⁻¹. Also, the IC50 in assay [4] was 7 to 10 nM; in assay [5], 5 nM. The same substance came in with an IC50 (read off the curve) in assay [6] of 7 nM.
